biological target: prototype SARS-CoV-2 tandem RBD homotrimer (PPP) (SARS-CoV-2) (UniProt P0DTC2); assay: SPR

Substance | Kd [nM]
C022 | 1.8
CR3022 | 80.6
CV07-270 | 11.7
REGN10933 | 5.4
S309 | 0.4

— paper PMC10538664
